This is an account of results in paper PMC3373015.

Data set [1] has as its target T1, Asp38 (UniProt position 120, TFRLLDVDTPE). In words: stability. Conditions: folded/unfolded equilibrium, no ligand.
The target in data set [2] is T1, Asp38. The data set can be described thus: NMR. Conditions: 298 K; 100 mM KCl, 0.5 mM NaN3 (no buffer stated); folded, no ligand.
In data set [3] the target is T2, Glu38 (UniProt position 120, TFRLLEVDTPE). The data set can be described thus: stability. Conditions: folded/unfolded equilibrium, no ligand.
Data set [4] addresses Glu10 (UniProt position 92, KKLHKEPATLI). The data set can be described thus: NMR.
The target in data set [5] is Glu43 (UniProt position 125, EVDTPETKHPK). In words: NMR. Conditions: 298 K; 100 mM KCl, 0.5 mM NaN3 (no buffer stated); folded, no ligand.
The target in data set [6] is Glu135 (UniProt position 217, AQAKKEKLNIW). In words: NMR.
In data set [7] the target is Glu75 (UniProt position 157, KKIEVEFDKGQ). In words: NMR.
The target of data set [8] is Asp19 (UniProt position 101, LIKAIDGDTVK). The data set can be described thus: NMR.
For data set [9], the target named is Asp146 (UniProt position 228, SEDNADSGQ--). The data set can be described thus: NMR.
Data set [10] addresses Glu67 (UniProt position 149, TKKMVENAKKI). The data set can be described thus: NMR.
In data set [11] the target is Asp95 (UniProt position 177, AYIYADGKMVN). In words: NMR.
The target in data set [12] is Glu52 (UniProt position 134, PKKFNEKYGPE). The data set can be described thus: NMR.
Data set [13] concerns the target Glu142 (UniProt position 224, LNIWSEDNADS). The data set can be described thus: NMR.
The target of data set [14] is Glu57 (UniProt position 139, EKYGPEASAFT). In words: NMR.
In data set [15] the target is T2, Glu38. The data set can be described thus: NMR. Conditions: 298 K; 100 mM KCl, 0.5 mM NaN3 (no buffer stated); folded, no ligand.
The target in data set [16] is Glu73 (UniProt position 155, NAKKIEVEFDK). In words: NMR.
Data set [17] addresses Asp40 (UniProt position 122, RLLEVDTPETK). The data set can be described thus: NMR. Conditions: 298 K; 100 mM KCl, 0.5 mM NaN3 (no buffer stated); folded, no ligand.
In data set [18] the target is Glu129 (UniProt position 211, LLRKAEAQAKK). The data set can be described thus: NMR.
For data set [19], the target named is Asp77 (UniProt position 159, IEVEFDKGQRT). In words: NMR.
In data set [20] the target is Glu101 (UniProt position 183, GKMVNEALVRQ). The data set can be described thus: NMR.
The target of data set [21] is Asp21 (UniProt position 103, KAIDGDTVKLM). The data set can be described thus: NMR.
For data set [22], the target named is Asp143 (UniProt position 225, NIWSEDNADSG). In words: NMR.
The target in data set [23] is Glu122 (UniProt position 204, GNNTHEQLLRK). The data set can be described thus: NMR.
Data set [24] deals with Asp83 (UniProt position 165, KGQRTDKYGRG). In words: NMR.
In data set [25] the target is Lys38 (UniProt position 120, TFRLLKVDTPE). The data set can be described thus: stability. Conditions: cited from earlier work.
Data set [26] has as its target Asp40 (UniProt position 122, RLLKVDTPETK). In words: NMR. Conditions: 298 K; 100 mM KCl, 0.5 mM NaN3 (no buffer stated); folded, no ligand.
The target in data set [27] is Glu43 (UniProt position 125, KVDTPETKHPK). In words: NMR. Conditions: 298 K; 100 mM KCl, 0.5 mM NaN3 (no buffer stated); folded, no ligand.
Data set [28] has as its target His8 (UniProt position 90, STKKLHKEPAT). Conditions: folded Δ+PHS nuclease; cited from earlier work.
In data set [29] the target is Glu43 (UniProt position 125, LVDTPETKHPK). The data set can be described thus: NMR. Conditions: folded Δ+PHS nuclease; cited from earlier work.
Data set [30] has as its target Asp40 (UniProt position 122, RLLLVDTPETK). The data set can be described thus: NMR. Conditions: folded Δ+PHS nuclease; cited from earlier work.
Setting [31] is: 298 K, 100 mM KCl, 0.5 mM NaN3 (no buffer stated), folded, no ligand.
The mark [32] stands for this setting: folded Δ+PHS nuclease, cited from earlier work.

For “Staphylococcal nuclease Δ+PHS/L38D (Staphylococcus aureus; G50F;V51N;P117G;H124L;S128A;del44-49;L38D)”, the figures for the pKa in data set [1] and in data set [2] were 6.8 +/- 0.3 and 7.2, respectively.
“Staphylococcal nuclease Δ+PHS/L38D/E122Q (Staphylococcus aureus; G50F;V51N;P117G;H124L;S128A;del44-49;L38D;E122Q)”: the pKa (as a rule, the pH at which an ionisable group is half protonated) in data set [1] is given as 6.9 +/- 0.3; in data set [2] it was 6.6.
Turning to “Staphylococcal nuclease Δ+PHS/L38E (Staphylococcus aureus; G50F;V51N;P117G;H124L;S128A;del44-49;L38E)”, the pKa in [3] is 7.0 +/- 0.3; in [4] (setting [31]), 3.1; in [5], 4.4; in [6] (setting [31]), 3.8; in [7] (setting [31]) it was 3.3; in data set [8] (setting [31]), below 2.5. The pKa is recorded as 3.9 in [9] (setting [31]); 3.8 in [10] (setting [31]); 2.3 in data set [11] (setting [31]); 4.0 in [12] (setting [31]); 4.5 in [13] (setting [31]); 3.6 in [14] (setting [31]). Moreover, the pKa in [15] is on record as 7.0; in data set [16] (setting [31]), 3.4; in [17], 3.9; in data set [18] (setting [31]) it was 3.9; in data set [19] (setting [31]), below 2.5; in [20] (setting [31]), 3.9. For the same substance, the pKa in data set [21] (setting [31]) is listed as 6.6; in data set [22] (setting [31]) it was 3.8; in [23] (setting [31]) it was 3.8; in data set [24] (setting [31]), below 2.5.
The substance “Staphylococcal nuclease Δ+PHS/L38E/D77N (Staphylococcus aureus; G50F;V51N;P117G;H124L;S128A;del44-49;L38E;D77N)” had a pKa in [15] of 6.1.
On to “Staphylococcal nuclease Δ+PHS/L38E/E122D (Staphylococcus aureus; G50F;V51N;P117G;H124L;S128A;del44-49;L38E;E122D)”, for which, in [15], the pKa turned out to be 7.4.
Substance “Staphylococcal nuclease Δ+PHS/L38E/E122Q (Staphylococcus aureus; G50F;V51N;P117G;H124L;S128A;del44-49;L38E;E122Q)” came in with a pKa in data set [15] of 6.2.
“Staphylococcal nuclease Δ+PHS/L38E/R126Q (Staphylococcus aureus; G50F;V51N;P117G;H124L;S128A;del44-49;L38E;R126Q)”: the pKa in [15] was determined as 7.2.
Turning to “Staphylococcal nuclease Δ+PHS/L38K (Staphylococcus aureus; G50F;V51N;P117G;H124L;S128A;del44-49;L38K)”, the pKa is listed as at least 10.4 in data set [25]; 3.1 in data set [4] (setting [31]); 3.9 in [6] (setting [31]); below 2.5 in data set [8] (setting [31]); 4.0 in data set [9] (setting [31]); 3.9 in data set [10] (setting [31]). Also, the pKa in data set [11] (setting [31]) was 2.1; in data set [12] (setting [31]) it was 4.1; in data set [13] (setting [31]), 4.6; in data set [14] (setting [31]) it was 3.6; in data set [16] (setting [31]) it was 3.3; in [18] (setting [31]), 3.8. Moreover, the pKa in data set [26] is listed as 3.8; in [20] (setting [31]) it was 3.9; in data set [21] (setting [31]), 6.5; in data set [27], 4.5; in data set [22] (setting [31]), 4.0; in data set [23] (setting [31]) it was 3.9. For the same substance, in data set [24] (setting [31]), the pKa is below 2.5.
As to “Staphylococcal nuclease, Δ+PHS variant (Staphylococcus aureus; G50F;V51N;P117G;H124L;S128A;del44-49)”, the pKa is 6.5 in data set [28]; 2.8 in [4] (setting [32]); 3.8 in data set [6] (setting [32]); 4.3 in data set [29]; 3.3 in [7] (setting [32]); 2.2 in data set [8] (setting [32]). Moreover, the pKa in [9] (setting [32]) is 3.9; in [10] (setting [32]) it was 3.8; in [11] (setting [32]) it was 2.2; in [12] (setting [32]), 3.9; in data set [13] (setting [32]) it was 4.5; in data set [14] (setting [32]), 3.5. Moreover, the pKa is reported as 3.3 in [16] (setting [32]); 3.8 in data set [18] (setting [32]); 3.9 in data set [30]; below 2.5 in [19] (setting [32]); 3.8 in data set [20] (setting [32]); 6.5 in data set [21] (setting [32]). Also, the values for the pKa in data set [22] (setting [32]), in data set [23] (setting [32]) and in data set [24] (setting [32]) were 3.8, 3.9 and below 2.5, respectively.
